In patent US20090148513A1 (AbbVie / Abbott, published 2009):

Biological target: rHuTNF (human, UniProt P01375 77-233)
Experiment: cell-based or functional assay

Chain of rHuTNF (P01375 77-233 limits assumed): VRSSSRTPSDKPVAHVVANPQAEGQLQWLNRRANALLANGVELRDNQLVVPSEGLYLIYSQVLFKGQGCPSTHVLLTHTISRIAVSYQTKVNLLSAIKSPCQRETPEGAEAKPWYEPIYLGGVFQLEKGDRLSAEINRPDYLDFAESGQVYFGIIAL

B1: MAK195F, F(ab')2 fragment of the murine IgG3 monoclonal anti-hTNFalpha antibody MAK195 (other)
light: DIVMTQSHKFMSTTVGDRVSITCKASQAVSSAVAWYQQKPGQSPKLLIYWASTRHTGVPDRFTGSGSVTDFTLTIHNLQAEDLALYYCQQHYSTPFTFGSGTKLEIKRADAAPTVSIFPPSSEQLTSGGASVVCFLNNFYPKDINVKWKIDGSERQNGVLNSWTDQDSKDSTYSMSSTLTLTKDEYERHNSYTCEATHKTSTSPIVKSFNRNEC
heavy: QVQLKESGPGLVAPSQSLSITCTVSGFSLTDYGVNWVRQPPGKGLEWLGMIWGDGSTDYDSTLKSRLSISKDNSKSQIFLKMNSLQTDDTARYYCAREWHHGPVAYWGQGTLVTVSAATTTAPSVYPLVPGCSDTSGSSVTLGCLVKGYFPEPVTVKWNYGALSSGVRTVSSVLQSGFYSLSSLVTVPSSTWPSQTVICNVAHPASKTELIKRIEPRIPKPSTPPGSSCPPGNILGGPSVF
modifications: N-terminal glutamine completely converted into pyroglutamic acid; partial O-glycosylation at SerH222 (about 70% of Fd' fragments non-glycosylated); deamidation of a single asparagine residue (AsnL157)
relative biological activity (neutralisation of rHuTNF cytotoxicity on mouse L-929 cells; mean IC50 of reference standard / IC50 of sample x 100%): 102%
